According to IntAct's records for PubMed 16885985:

B1: Merlin (Homo sapiens), P35240 (parent)
chain: MAGAIASRMSFSSLKRKQPKTFTVRIVTMDAEMEFNCEMKWKGKDLFDLVCRTLGLRETWFFGLQYTIKDTVAWLKMDKKVLDHDVSKEEPVTFHFLAKFYPENAEEELVQEITQHLFFLQVKKQILDEKIYCPPEASVLLASYAVQAKYGDYDPSVHKRGFLAQEELLPKRVINLYQMTPEMWEERITAWYAEHRGRARDEAEMEYLKIAQDLEMYGVNYFAIRNKKGTELLLGVDALGLHIYDPENRLTPKISFPWNEIRNISYSDKEFTIKPLDKKIDVFKFNSSKLRVNKLILQLCIGNHDLFMRRRKADSLEVQQMKAQAREEKARKQMERQRLAREKQMREEAERTRDELERRLLQMKEEATMANEALMRSEETADLLAEKAQITEEEAKLLAQKAAEAEQEMQRIKATAIRTEEEKRLMEQKVLEAEVLALKMAEESERRAKEADQLKQDLQEAREAERRAKQKLLEIATKPTYPPMNPIPAPLPPDIPSFNLIGDSLSFDFKDTDMKRLSMEIEKEKVEYMEKSKHLQEQLNELKTEIEALKLKERETALDILHNENSDRGGSSKHNTIKKLTLQSAKSRVAFFEEL
partner: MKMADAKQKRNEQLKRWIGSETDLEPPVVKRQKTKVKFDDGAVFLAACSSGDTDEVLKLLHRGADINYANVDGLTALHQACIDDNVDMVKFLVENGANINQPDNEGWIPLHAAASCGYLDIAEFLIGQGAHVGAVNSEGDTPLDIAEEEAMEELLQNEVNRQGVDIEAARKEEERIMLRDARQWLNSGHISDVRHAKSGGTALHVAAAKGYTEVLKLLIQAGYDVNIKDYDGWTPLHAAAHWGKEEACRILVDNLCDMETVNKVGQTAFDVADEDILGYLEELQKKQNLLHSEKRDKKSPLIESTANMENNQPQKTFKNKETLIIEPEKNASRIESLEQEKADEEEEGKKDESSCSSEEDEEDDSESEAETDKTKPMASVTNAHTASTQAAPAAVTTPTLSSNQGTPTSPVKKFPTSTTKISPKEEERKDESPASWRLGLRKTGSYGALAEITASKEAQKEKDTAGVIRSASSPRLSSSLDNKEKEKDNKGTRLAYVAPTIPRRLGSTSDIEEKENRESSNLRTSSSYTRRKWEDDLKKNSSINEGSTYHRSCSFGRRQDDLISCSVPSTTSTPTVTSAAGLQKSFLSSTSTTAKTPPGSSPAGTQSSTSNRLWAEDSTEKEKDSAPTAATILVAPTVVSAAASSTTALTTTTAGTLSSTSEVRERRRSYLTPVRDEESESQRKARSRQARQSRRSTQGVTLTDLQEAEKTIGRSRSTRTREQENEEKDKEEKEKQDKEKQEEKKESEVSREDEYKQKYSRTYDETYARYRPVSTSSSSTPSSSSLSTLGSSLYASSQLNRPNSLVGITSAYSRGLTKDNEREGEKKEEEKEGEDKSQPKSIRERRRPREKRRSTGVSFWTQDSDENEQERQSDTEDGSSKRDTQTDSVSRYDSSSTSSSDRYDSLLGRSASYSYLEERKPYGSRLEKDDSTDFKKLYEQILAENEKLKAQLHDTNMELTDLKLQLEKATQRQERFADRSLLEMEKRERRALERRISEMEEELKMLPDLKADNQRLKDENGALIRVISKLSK

Variants of: B1
Settings: with mypt1_rat Ppp1r12a

effect of a mutation on the interaction	Variant
decreasing interaction	MAGAIASRMSFSSLKRKQPKTFTVRIVTMDAEMEFNCEMKWKGKDLFDLVCRTLGLRETWFFGLQYTIKDTVAWLKMDKKVLDHDVSKEEPVTFHFLAKFYPENAEEELVQEITQHLFFLQVKKQILDEKIYCPPEASVLLASYAVQAKYGDYDPSVHKRGFLAQEELLPKRVINLYQMTPEMWEERITAWYAEHRGRARDEAEMEYLKIAQDLEMYGVNYFAIRNKKGTELLLGVDALGLHIYDPENRLTPKISFPWNEIRNISYSDKEFTIKPLDKKIDVFKFNSSKLRVNKLILQLCIGNHDLFMRRRKADSLEVQQMKAQAREEKARKQMERQRLAREKQMREEAERTRDELERRLLQMKEEATMANEALMRSEETADLLAEKAQITEEEAKLLAQKAAEAEQEMQRIKATAIRTEEEKRLMEQKVLEAEVLALKMAEESERRAKEADQLKQDLQEAREAERRAKQKLLEIATKPTYPPMNPIPAPLPPDIPSFNLIGDSLSFDFKDTDMKRLAMEIEKEKVEYMEKSKHLQEQLNELKTEIEALKLKERETALDILHNENSDRGGSSKHNTIKKLTLQSAKSRVAFFEEL [S518A]
